Assay results taken from PMC8130932 (PLoS Pathogens, 2021).

B1: FN 2C (antibody, V domains shown)
VH: EVQLLESGGGVVQPGRSLRLSCAASGFNFNNYGMHWVRQAPGKGLEWVATISYEGSKKFYVDSVKGRFTISKDNSKNTLYLQMNSLRVDDTAFYYCAKRREIFWLGEPPLSDAFDFWGQGTMVTVSS
VL: QSVLTQPPSVSGAPGQRVTISCTGSGSNIGAGYDVHWYQFLPGTAPQLLIYGNNNRPSGVPDRFSGSKSGTSASLAITGLQAEDEADYYCQSYDSSLSGSVFGGGTKLTVL
notes: source: HEK293T, transfected; culture supernatant or purified
B2: EY 6A (antibody, V domains shown)
VH: EVQLVESGGGVVQPGRSLRLSCAASAFTFSSYDMHWVRQAPGKGLEWVAVISYDGSNKYYADSVKGRFTISRDNSKNTLYLQMNSLRAEDTAVYYCAKDGGKLWVYYFDYWGQGTLVTVSS
VL: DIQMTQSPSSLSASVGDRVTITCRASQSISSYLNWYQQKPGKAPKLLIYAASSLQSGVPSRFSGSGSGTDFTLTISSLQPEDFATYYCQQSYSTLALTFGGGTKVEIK
notes: as for B1
B3: FM 7B (antibody, V domains shown)
VH: EVQLVQSGAEVKKPGASVKVSCKASGYTFTSYAMHWVRQAPGQRLEWMGWINTGNGNTKYSQKFQGRVTITRDTSASTAYMELSSLRSEDTAVYYCARDPTYCSSTSCYPFSWFDPWGQGTLVTVSS
VL: NFMLTQPPSVSVAPGQTARITCGGNNIGSKSVHWYQQKPGQAPVLVVYDDSDRPSGIPERFSGSNSGNTATLTISRVEAGDEADYYCQVWDSTGDHSWVFGGGTKLTVL
notes: as for B1
B4: FI 4A (antibody, V domains shown)
VH: EVQLVESGGGLVKPGGSLRLSCAASGFTFSRFSMNWVRQAPGKGLEWVSSISSSGSYIYFADSVKGRFTISRDNAKNSLYLQMNSLRAEDTAIYYCATYLFGDSHTYWGQGTLVTVSS
VL: QSVLTQPHSVSESPGKTVTISCTGSSGSIASNYVQWYQQRPGSAPTTVIYEDNQRPSGVPDRFSGSIDSSSNSASLTISGLKTEDEADYYCQSYDSSNLHWVFGGGTKLTVL
notes: as for B1
B5: EZ 7A (antibody, V domains shown)
VH: EVQLVESGAEVKKPGESLKISCKGSGYSFTSYWIGWVRQMPGKGLEWMGIIYPGDSDTRYSPSFQGQVTISADKSISTAYLQWSSLKASDTAMYYCARGWVYRGFPYYGMDVWGQGTMVTVSS
VL: QSALTQPRSVSGSPGQSVTISCTGTSSDVGGYNYVSWYQQHPGKAPKLMIYDVSKRPSGVPDRFSGSKSGNTASLTISGLQAEDEADYYCCSYAGSYTLVFGGGTKLTVL
notes: as for B1

How the values were obtained:
[1] = molecular target: T1, SARS-CoV-2 spike glycoprotein S1+S2 extracellular domain (SARS-CoV-2, reference sequence, UniProt P0DTC2); assay: ELISA
T1 construct: also called full-length spike glycoprotein ectodomain

[2] = molecular target: T2, SARS-CoV-2 spike glycoprotein, full-length, prefusion-stabilised, on MDCK-SIAT1 cells (SARS-CoV-2, reference sequence, UniProt P0DTC2, 986KV987 to 986PP987 | 682RRAR685 to 682GSAG685); assay: flow cytometry on cells; details: one partner purified
T2 construct: also called MDCK-Spike

Row | Binder | OD450 [1] | binding result [2]
1 | B1 | 1.77 OD450 | binds
2 | B2 | 1.75 OD450 | binds
3 | B3 | 1.8 OD450 | binds
4 | B4 | 1.68 OD450 | binds
5 | B5 | 1.66 OD450 | binds
